Test: yeast display, Sf9 membrane polyspecificity reagent, FACS + sequencing; frameworks hold sequencing errors
Method in brief: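 After 36–48 hours of galactose induction, yeast (Saccharomyces cerevisiae BJ5465) displaying a synthetic nanobody library were stained at 4 °C for 1 hour with 10% biotinylated, detergent-solubilized Sf9 membrane reagent. Streptavidin microbeads enriched the stained cells before FACS sorting into low and high (top ~1%) gates on anti-HA and streptavidin fluorescence. Each clone's polyreactivity label reflects its gate of origin.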

Row | Sequence | polyreactivity (PSR sort gate)
1 | QVQLVKSGGGLVQAGGSLRLSCAASGRIFVGYVMGWYRQAPGKERELVAAIDSGGRTNYADSVKGRFTISRDNAKNTVYLQMNSLKPEDTAVYYCNREAAHGSLRWTEMEYWGQGTQVTVSS | low polyreactivity
2 | QVQLVQSAVGLVQAGGSLRLICAASGITFLDNAMGWYRQAPGTERELVAAITSDGNPYYADCVKGRFTISRDNAKNTVYLQMNSLKPEDTAVYYCAVEVSDYYTYVSYDYCGQGTQVTVSS | low polyreactivity
3 | QVQLVQSGGGLVQAGGRLSLSCAASGYIFFTNAMGWYRQAPGKERELVAAISSAGRTKYADSVKGRFTISRDNAKNTVYIQMNSLIPEDTAVYYCNKSFYYRWGTGYDYWGQGTQVTVSS | low polyreactivity
4 | QVQLVQSGGGLVQAGGSLRLSCAASGGIFRTNPMGWYRQAPGQERALVATISRRGGSTYYADSVKGRFTISRDNAKNTVYFQMNSLKPEDTAVYYCAVEWYYTSNHIRFYRDNYWGQGTQVTVSS | high polyreactivity
5 | QVQLVQSGGGLVQAGGSLRLSCAASGRIFNYNAMGWYRQAPGKERELVAAINRSGVSTHYADSVKGRFTISRDNAKNTVYLQMNSLKPEDTAVYYCARTVYGARSYDYWGQGTQVTVSS | low polyreactivity
6 | QVQLVQSGGGLVQAGGSLRLSCAASGRIFPRYGMGWYRQAPGKERELCADITSSGSTYADSVKGRFTISRDNAKNTDYLQMHSLKPEDTAVYYCNALDRRLSYSWRYRQLYDYWGQGTQGTVSS | high polyreactivity
7 | QVQLVQSGGGLVQAGGSLRLSCAASGRNYSDNPMGWYRQAPGKERELVAANSSTGGTYYADSVKGRFTISRDNAKNTVYLQMNSLKPEDTAVYYCAARYRTLTKYYWGQGTQVSVSS | low polyreactivity
8 | QVQLVQSGGGLVQAGGSLRLSCAASGRPSLLMLWDGIDRRLGKKGSWLPLLTLVTPTTYADSVKGRFTISRDNAKNTVYLQMNSLKPEDTAVYYCNADFRPLDHYVNWYYYWGQGTQVTVSS | low polyreactivity
9 | QVQLVQSGGGLVQAGGSLRLSCAASGRTFGVYAMGWYRQAPGKERELVAAITWSGGSTYYADSVKGRFTISRDNAKNTVYLQMNSLKPEDTAVYYCAALTWLSGVKMGYWGQGTQVTVSS | high polyreactivity
10 | QVQLVQSGGGLVQAGGSLRLSCAASGSIFLYYVMGWYRQAPGQERELVAAITWDGGSTYYADSVKGRFTISRDNAKNTVYLQMNSLNPEDTAVYFCAARVASKYLVYRKRPSRYDYWGQGTQLTVSS | low polyreactivity
11 | QVQLVQSGGGLVQAGGSLRLSCAASGSTFPTNAMGSYRQAPGKERELVAAISSSGGRTYYADSVKGRFTISRDNAKKTDYLQRNSLKPEDTAVYYCAAVWWRAYAVRMYYWGQGTQVTVSS | high polyreactivity
12 | QVQLVQSGGGLVQAGGSLRLSCAASGSTFYYYGMRSYREAPGKEMELFASISWRGGSTYSADSVKGRYTISRDNAKNTVYLQMNSLKPEDTAVYYCAASRRPWYRAVTWNAGDYWGQGTQVTVSS | high polyreactivity
13 | QVQLVQSGGGLVQAGGSLRLSCAASGSTIAYKAMGWNRQAPGKEREMLAAISWRGGSTYYADSVKGRFTISRDNAKNTVYLQMKSLKPEDTAVYYCAKVYRAYTDVVRYGYWGQGSQVTVSS | high polyreactivity
14 | QVQLVQSGGGLVQAGGSLRLSCAASGYTFYVNTMGWYRKAPGKERELVAVISSGGRTNYADSVKGRFTISRDNAKNTVYLQMNSLKPEDTAVYYCAAIGWRTRYRFEYWGIGTQVTVSS | high polyreactivity
15 | QVQLVQSGGGLVQAGGSLRLSCADSGRTFTRYTMGWYRQAPGKERELVAAISSGGSTTYADSVKGRFTISRDNAKNTVYLQMNSLKPEDTAVYYCAAGLVYRGYRRDYWGQGTQVTVSS | low polyreactivity
16 | QVQLVQSGGGLVQAGGSLRLSCAPTGVIFRHNARGWYRQSPGKERELVAAISRSGGNTYYADSVKGRFTISRDNAKQTDYLQRNSLKPEDTAVYYSNKIEYDSWADHVYWGQGTQVTVSS | low polyreactivity
17 | QVQLVQTGGGLVQAGGSLRLSCAGSGSTFTSYVMGWYRQAPGKERELVAAITSSGGDTYYADSVKGRFTISRDNAKNTVYLQMNSVKPEDTAVYYCATRSYYRSSYYRNRYPYDYWGQGTQVTVSS | low polyreactivity
18 | QVQLVSGGGLVHSGGSLRLSCAASGITFESNAMGWYRQGPGKEREFVAAISYDGGDTYYADSVKGRFTISRDNAKNTVYLQMNSLKPDDTSVYYCAAETGWTMDYWGQGTQVTVSS | low polyreactivity
19 | QVQLVSGGGLVQAGGSLRLSCAASGRIFGTYAMGWYRQAPGKERELVAAITSGGSTYYADSVKGRFTISRDNAKNTVYLQMNSLKPEDSAVYYCAAEYAIWTHWGRYVTGNYWGQGTQVTVSS | high polyreactivity
20 | QVQLVVSGGGLDQARGSLSLSCAASGRNFTSYAMGWYRQAPWKERELVAAISWSVGSTYYADSVKGRFTISRDNAKNTVYLQMNSLKPEDTSVYYCNAVYPSVYPVSTRYYWGQGTQVTVSS | high polyreactivity
21 | QVQLVVSGGGLVHAGGSLRLSCAAYGFTVYKNTMGWYRQAPRKERELVAAISSSGSSTYYADTVKGRFTISRDNAKNTVYLQMNSLKPEDTAVYYCAAGRFAYHDDYWGQGTQVTVSS | high polyreactivity
22 | QVQLVVSGGGLVQAGGSLLLSCAASGFTFYSYAMGWYRQAPGKERELVAGISWSGTRTYYADSVKGRFTISRDNAKNTVYLQMISLKPEDTAVYYCAARGYRYGYGYWGQGTQVTVSS | high polyreactivity

Row | Sequence | polyreactivity (PSR sort gate)
23 | QVQLVVSGGGLVQAGGSLRLSCAASGGTFGGYAMGWYRQAPGKERELVAVITQRGGSTSYADSVKGRFTISRDNAKNTVYLQLNSQKREDTAVYYCNASAWLVVARTRYGYWGQGTQVTVSS | low polyreactivity
24 | QVQLVVSGGGLVQAGGSLRLSCAASGITFYYNAMGWYRQAPGKEGEVVAAITRRGGSTYYADSVKGRFTISRDNAKNTVYLQMNSLIPEDTAVYYCAKYIYGYKDSPLGDDYWGQGTQVTVSS | high polyreactivity
25 | QVQLVVSGGGLVQAGGSLRLSCAASGRTFRSNAMGWYRQAPGKERELVAAISRTGRTNYADSVKGRFTISRDTAKNTVYLQMNSLKPEDTAVYYCAARGYSVPRQERYDYWGQGTQVTVSS | high polyreactivity
26 | QVQLVVSGGGLVQAGGSLRLSCAASGRTFSIYAMGWYRQAPWKERELVAAISWSGGRTYYADSVKGRFTISRDNAKNTVYLLMNSLKPEDTAVYYCNKDWIYRGYDYWGQGTQVTVSS | high polyreactivity
27 | QVQLVVSGGGLVQAGGSLRLSCAASGSIFKKYAMGWYRQAPGKERELVAAITRGTYYADSVKGRFTISRDNAKNTVYLLMNSLNPEDTAVYYCNREYWVRGYYRVRGEYDYWGQGTQVTVSS | low polyreactivity
28 | QVQPQESGGGLVQAGGSLRLSCAASGTIFAFQTMGWYRQAPGKERELVASITYGSSTNYADSVKGRFTFSRDNANITVYVQMNSLKPEDTAVYYCAVPQAQYYYYYWGQGTQVTVSS | high polyreactivity
29 | QVQPVESGGGLVQAGGSLRLSCAASGRIFGDYAMGWYRQAPGKERELVAAINCSGTSTNYADSVKGRFTISRDNAKYTVYLEMNSLKPEFTAVYYCNAEGTYRPEYDSWVQGTQVTVSS | low polyreactivity
30 | QVQQQESGGGLVQAGGSLRLSCAASGTIFQLTVMGRYRQAPGKERELVASIDYGGNTNYADSVKGRFTISRDNAKKTVYLQKYIVKPEDTAVYYCAAYSDSWTTHPYWGQVTQVTVSS | low polyreactivity
31 | QVQQQESGGGLVQAGGSLRLSCAASGTIFQLTVMGRYRQAPGKERELVASIDYGGNTNYADSVKGRFTISRDNAKNTVYLQMNRLKPEDTAVYYCSASSDSWTTHPYWGQGTQVTVSS | low polyreactivity
32 | QVQQQESGGGLVQAGGSLRLSCAASGTIFQLTVMGRYRQAPGKERELVASIDYGGNTNYADSVKGRFTISRDNAKYTVYLLMISLKPEDTAVYYCAASSVSWTTHPYWGQGTQVTVSS | low polyreactivity
33 | QVQQQESGGGLVQAGGSLRLSSAASVTILYTLGLGLYRQAPGKTLEFVASITWGTTTNYAESVKGRFTISRDNAKNSVYLQMNSLKPEDTADYYCAARKFVYWYGMEYWGQGTQVTVSS | low polyreactivity
34 | QVQQQESGGGLVQAGGSLRRSCAASGSIFSHWAMGWYRQTPGKERELVASITAGGNNNYADSVKGRFTISRDNAKNTVYLPMNSLKPEDTAVYYCNRRYPGPDSFEHYYYYRYDYWGQGTQVTVSS | low polyreactivity
35 | QVQQQQSGGGLVQAGGSLSLSCAASGTIFQLTVMGRYRQAPGKERELVASIDYGGNTNYADSVKGRFTISRDNAKNTVYLQMNSLKPEDTEVYYCAASSDTWTTHPFWGQGTQVTVSS | low polyreactivity
36 | QVQQQVSGGGLVQAGGSLRLSCAASGYIFQNVPMGWNRQAPGKERDLVAGIDNGTSTNYADSVNGRFTISRDNAKNTVYLQMNSLKPEVTAVYYCAAAGQADDTLGYWGQGTLVTVSS | low polyreactivity
37 | QVQREESGGGLVQAGGRLRLTCAASGSIFGYYVMGWYRQAPGKERELVAAITRSGSTYYADSVKGRFTISRDNAKNTVYLQMNSLKPEDTAVYYCYADVYWPGTPYTHDYWGQGTQVTVSS | low polyreactivity
38 | QVQRVDSGGGLVQAGGSLRLICAASGFTFKYYAMGWYRQAPGKERELVAAITRGGDTYYADSVMGRFTISRDNAKNTVYLQMNRLKPEETAVYYCNTASDKRAFDYWGQGTQLTVSS | low polyreactivity
39 | QVQRVDSGGGLVQAGGSLRLSCAASGITLLRYTMGWYRQAPGKERELLASITKRGGSTYYADSVKGRFTISRDNAKNTVYLQMNSLKPEDTAVYYCNADRHNSYYRKWDQLDMDYWGQGTQVTVSS | high polyreactivity
40 | QVQRVESAGGLVQARGSLRLSSAASGRIFKAYAMGCYRQAPGKERELVAAISRSGGNTYYADSVKGRFTISRDNAKYTVYLQLNSLKPEETAVYYCAARRFWGSDYDYWGQGTQVTVSS | high polyreactivity
41 | QVQRVESAGRLVQAGGSLRLSCAPSGRTFPGNDMGWYRQAPGKESEFVAAISSDDSTYYADSVKGRFTISRDNAKNTVYLQMNSLKPEDTGVYYSNAEYFEGYIGVPGSYWPYEYWGQGNQVTVSS | low polyreactivity
42 | QVQRVESEGGLVQAGGSLRLSCAASGRTFENYAMGWYRQAPGKERELVATINGRSGNTYYADSVKGRFTISRDNAKNTVYLQLNSLKPDDTAVYYCNAYYEGDYTVGYDYWGQGTQVTVSS | high polyreactivity
43 | QVQRVESGGCLVQAGGSLRLSCAASGRTFSYYTMGWYRQAPGKEREFVATINTSGGSTYYADSVKGRFTISRDNAKNTVYLQMNSLKPEDTAVYYCAADVYSFLSISYQWYRMDYWGQGTQVTVSS | low polyreactivity

Source: the nanobody polyreactivity screen of Harvey et al. (2022)
